Experimental data: PMC7277757, “On the Electrochemical Detection of Alpha-Fetoprotein Using Aptamers: DNA Isothermal Amplification Strategies to Improve the Performance of Weak Aptamers”

Tests used:
[1] = molecular target: T1, alpha-fetoprotein (AFP) (Homo sapiens) (UniProt P02771); assay: magnetic bead binding assay, antiF-POD, chronoamperometry; conditions: no amplification; 1:1 fit; 1x PBS, 25 °C, 30 min, 1300 rpm; 60 µg AFP-modified magnetic beads in 250 µL (effective AFP about 34 nM); washes 1x PBS 0.01% Tween 20; pH not stated
T1 sequence: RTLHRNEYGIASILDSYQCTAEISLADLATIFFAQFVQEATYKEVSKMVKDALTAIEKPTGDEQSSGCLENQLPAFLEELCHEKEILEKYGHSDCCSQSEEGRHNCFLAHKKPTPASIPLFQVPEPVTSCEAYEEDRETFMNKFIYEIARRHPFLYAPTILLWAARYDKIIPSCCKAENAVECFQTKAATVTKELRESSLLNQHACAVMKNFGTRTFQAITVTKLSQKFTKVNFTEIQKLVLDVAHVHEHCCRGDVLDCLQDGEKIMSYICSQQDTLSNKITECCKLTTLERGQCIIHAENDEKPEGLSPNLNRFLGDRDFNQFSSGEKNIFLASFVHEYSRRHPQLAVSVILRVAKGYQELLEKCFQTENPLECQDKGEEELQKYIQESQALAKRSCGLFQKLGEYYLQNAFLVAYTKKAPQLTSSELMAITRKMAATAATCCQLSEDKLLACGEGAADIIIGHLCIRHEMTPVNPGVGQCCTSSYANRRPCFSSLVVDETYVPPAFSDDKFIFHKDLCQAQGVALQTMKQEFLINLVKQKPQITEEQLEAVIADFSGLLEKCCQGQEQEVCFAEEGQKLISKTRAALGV

[2] = molecular target: T2, alpha-fetoprotein (AFP) (Homo sapiens, UniProt P02771 19-609); assay: magnetic bead binding assay, antiF-POD, chronoamperometry; no amplification; Hill n = 1.6 ± 0.4; 1x PBS, 25 °C, 30 min, 1300 rpm; 60 µg AFP-modified magnetic beads in 250 µL (effective AFP about 34 nM); washes 1x PBS 0.01% Tween 20; pH not stated; conditions: protein: native; label: 5' FITC
T2 sequence: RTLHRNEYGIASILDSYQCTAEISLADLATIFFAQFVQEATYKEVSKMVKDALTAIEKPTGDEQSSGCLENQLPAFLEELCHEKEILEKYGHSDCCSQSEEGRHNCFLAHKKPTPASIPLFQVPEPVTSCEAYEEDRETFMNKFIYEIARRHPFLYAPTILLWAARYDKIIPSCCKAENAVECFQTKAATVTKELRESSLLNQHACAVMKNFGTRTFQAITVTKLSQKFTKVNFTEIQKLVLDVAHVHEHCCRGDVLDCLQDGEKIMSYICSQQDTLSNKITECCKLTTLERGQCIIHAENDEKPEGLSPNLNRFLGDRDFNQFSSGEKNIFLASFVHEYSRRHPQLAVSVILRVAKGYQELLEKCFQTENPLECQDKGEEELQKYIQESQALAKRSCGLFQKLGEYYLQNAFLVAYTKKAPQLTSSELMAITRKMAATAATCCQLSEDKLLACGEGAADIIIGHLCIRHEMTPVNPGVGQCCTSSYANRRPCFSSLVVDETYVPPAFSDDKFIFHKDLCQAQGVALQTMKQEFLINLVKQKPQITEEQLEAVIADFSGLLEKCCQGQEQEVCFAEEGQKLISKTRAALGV

[3] = molecular target: T2, alpha-fetoprotein (AFP); assay: magnetic bead binding assay, TdT amplification, SA-POD, chronoamperometry; apparent Kd; TdT elongation after binding; Langmuir fit; 1x PBS, 25 °C, 30 min, 1300 rpm; 60 µg AFP-modified magnetic beads in 250 µL (effective AFP about 34 nM); washes 1x PBS 0.01% Tween 20; pH not stated; conditions: protein: native
[4] = molecular target: T2, alpha-fetoprotein (AFP); assay: magnetic bead binding assay, RCA amplification, antiF-POD, chronoamperometry; apparent Kd; RCA after binding; Langmuir fit (abstract prints 189 nM); 1x PBS, 25 °C, 30 min, 1300 rpm; 60 µg AFP-modified magnetic beads in 250 µL (effective AFP about 34 nM); washes 1x PBS 0.01% Tween 20; pH not stated; conditions: protein: native

How did the Kd [1] turn out when “TCAGGTGCAGTTCTCGACTCGGTCTTGATGTGGGT [AFP-S-FITC]” was run?
The Kd was 713 nM.

B1: AFP-L-FITC (ssDNA)
DNA: GGCAGGAAGACAAACAAGCTTGGCGGCGGGAAGGTGTTTAAATTCCCGGGTCTGCGTGGTCTGTGGTGCTGT
Which Kd [2] does the source give for B1 here?
Its Kd is 526 ± 101 nM.

B2: AFP-L-TdT (ssDNA)
DNA: GGCAGGAAGACAAACAAGCTTGGCGGCGGGAAGGTGTTTAAATTCCCGGGTCTGCGTGGTCTGTGGTGCTGTTTTTTT
B2 was tested. Which Kd [3] did it give?
The Kd was 32 ± 11 nM.

B3: AFP-S-RCA (ssDNA)
DNA: TCAGGTGCAGTTCTCGACTCGGTCTTGATGTGGGTTTTTTTTTTTAGATAGTAAGTGCAATCT
For B3, which Kd [4] is on record?
The Kd was 188 ± 33 nM.
